Test: label from the status in PepcDB records

Sequence	protein production
MTETIPVFDGHNDFLLRLLRNPANRETIWLKGDGTGHLDLPRMKEGGFAGGFFAIYVPSPQAHDAAHFEAMMDAPPFELPLPPMIRAEQAQPVALAMAGHLLWMERAARGRFKVCRTAAEVRSCHADGIVSGIMHMEGAEAIGADLDALHLFHSLGLRSLGPVWSRPTVFGHGVPFRFPGSPDTGEGLTEAGRRLVAECNRLKIMLDLSHLNEKGFDDVARLSDAPLVATHSNAHAVTPSTRNLTDRQLAMIRESRGMVGLNFATSFLREDGRRSAEMGWEPVLRHLDHLIDRLGEDHVGMGSDFDGATIPQGIADVTGLPALQAAMRAHGYDEPLMRKLCHENWYGLLERSWG	not failed
MTETNHDQAEYWGKSASGMKWLTFEEQIAASFAPVVDLLLERAALKPGQRVLDIGCGLGDVTLAAAQAVGPGGHVLGVDISAPFLERAGLRASGMGNVGFALADAQSEPFAPAERDAVLSRFGMMFFSDTVAAFANIARALKPGGRMTFAAWGPLAGNPWFYLPHRAATDRLGQMPKVDRNAPGPLAFHDIDRVTGLMAEAGLADIEAQAVDLNLTPPGGLEGAAALCTRLGPAARVLAHFNGSEADEAAIRDAVSAALEPYVEGGEVLMPATINLFQARRAGTA	failed
MTETYNKEQQEAMKKMMSFQMLYMLIMLGSLFIVITPSSRDAVGNLLNVVLIPTIGFGYRYPLLSIILTGVIIGVILSIPRYFFTDWVKMGKMQNTMKAFNEAIRAAYRERDMKKINKLNSMRMQMSMDQYQLSMNTMKPLLVISVLTILFYAWLFVFVGKIPYNYIAFPWDFNINISTAHFWIMPYWIFMYFLTEIVVSYFITMIMKYIDFTLRLRRISRETSS	failed
MTEVRPGAVASASLWERDAEIAALVEAVDALRADSPSSGSGSLLVFSGEAGIGKTALLGETRRIAESRGCTVWSARGGETVTSVPFNVVRQLLQPALVALMPDEAREYLGDWYDIAGPALGITEPGDRQADPQGVCDGLVAAVRRLARREWPLVLLIDDAHWADQETLHWLAAFAERLHDLSVLVVVARRPGEATEESTRHLDVIAAAAGPVATLSALTPEATAGLTRATVGVHADAPFCREVWAVTGGNPYETVELLAKVQDSELEPSESSAAELRALNRSARGRGLVARLEGLGIDATRFAWAAAILGTGISLDLAAQLAGMQREEALHCADLLGAARILTEPAPVNGRQPDGDLEFVHPLIASAVYNSIPDALRTAMHGVAAQVVTDSGLGAAAASRHLLEVHPDDDAELVDQMREAAREHLAVGAPDAARRCLERALLEPPLSDVHARVLYELGCATLLTSPATTIDYLQAALAMPGLDGDVRVDAVFRLSQALLHNNQVEEAVRTVDAEAARLEPGPARMRLQAVHYMWECVHAGEDISPTSVRALAELAKKCTGKDNSERALLILRGFDAMTRGENAEEVAELCDRALVNGRLAPGLGWTDTEWGIELLMMLASAYAYADRLDRAEALYNEALRAYEGAGWSGGHLALAHSYVGLGHRRRGRLTEAEKYLRESLRIAERVGRGLPLYWSATCGLVDTLLARGHVEEAAEIAERYGFGPPYPTTIVLPDTRSVRGRLLLALGRTEEGVNELEAAEKAATARGHHNTVLAPWALDLARALAVDDPRRAAELAATARRQAERFGTDTAIGEALRCAAALETGQRAASLYKQAVTYLEASPCSYEHAAARVEYGIATRSATELTRGLTLARSCGADGLVAQAQEALDNGPGLR	failed
MTEVSFFLSDNNWYFVVVINNKDFCMKCHRLNEVMELLHPVWEENSDLNLVQLLQKLADEAGFKGQLSDLTDDILIYHLKMRGSAPTEVIPGLKKDYEEDFKTAILRARGVIKD	failed
MTFALGQRWISDTESDLGLGTVVAMDARTVTLMFAASEENRVYARNDAPVTRVTFNVGDVIDCQEGWSLKVEEVLEDEGLYTYFGTREDTQETAVVLREIFLSNQIRFNKPQDKLYAGQIDRMDNFVLRY	failed
MTFANTASINHYWRTHPALFTAMLLVVVLITSYFIDVFSGSAIAVLLILQLAVVVVALQCSANYAYFVAVFGAVSFNFLFTAPRYSLQMLNVEDIVNLTVFLLAALTSSKLAKHYRRQQDALEQAQLRNSILLSVSHDLRTPLATIIGTLTTLKEYQPKLSPAQTEELIDSAAAESHRLHQYIENLLQANKLQHGALKFSLDEANIREVLQRTIARFQTEQPRIQIQSEPELPSLMICSSLIEQAIFNVLDNALHYSPATQPVTVSLYRHQHMLRIDIQDQGKGIAPSQTGAIFELFYRQHPTTDGGAGLGLPVAKGIITAHNGTISAEKVAHGSLIRIALPITKESA	failed
MTFCYVNAYQGGYILYNKGTKSKEVAKMSTKKVYSFLSQAFIFSAIMLISNIIATHLPIPMPSSVIGLVILFSLLCLKVIKLEQVESLGTALTGIIGFLFVPSGISVINSLGVMGQYFVQILTVIVVATVILLAVTGLFAQFILGKDEKETEDTKELKVVNKGRKHGKVA	failed
MTFGEKLLNAASTRGRLCVGIDPHESLLTSWGLPVNVDGLAEFSRACVEAFADTVALVKPQVAFYERFGSAGFAILEETIQTLRERGCLVVSDAKRGDIGSTMAGYASAWLDPASPLSSDAVTVSPYLGFHSLDPVFELAEQHGRGVFVLAATSNPEARELQDQQNADGVSISQQIVDQAAALNAPYMAQGKAGNIGVVIGATLSKPPRLSTLGGAILMPGVGAQGGTASDVDEIAGDMAHLAFPNVSRSILATGPDIAEMKNSVAKNAADFPGFPRS	failed
MTFLQRWQGLADNKICAFAWFVIRRFSEERVPQAAASMTFTTLLALVPVLTVMVAVASIFPVFDRWSDSFVSFVNQTIVPQGADMVFDYIDAFRDQANRLTAIGSVMLVVTSLMLIRTIDNAFNRIWRVNTQRPWMMQFLVYWALLTFGPLSLGVGISFMVGSVQDSVLSSGAQQWADALKTAARLAFMTLLLWGLYRFVPNRFVPARQAFVGALITAFCLETARFLFTWYMGNFDGYRSIYGAFAAVPFFLLWLNLLWTLVLGGAVLTSSLSYWQGEAFRRGFDSRGRFDDVLKILLLLDAAQKEGRTLSVQEFRRHINMGYDELGELLEKLARYGYIYSGRQGWVLKTGADSIELSELFKLFVYRPLPVERDHVNQAVDAVMTPCLQTLNMTLAEFDAQAKKQQQS	failed
MTFTSSFHYQALPMRVSFEVGAVTKIGEELDRLGLSRALVLCTPEQKHLADLVMDHLGDRGAGIFDQARMHVPVETADRARDRARKLGADSCVVIGGGSSIGLGKAIALEHGLPIIAIPTTYAGSEMTPIWGLTRDGRKQTGRDAKVLPQSVIYDPQLTATLPAEISAASGLNAVAHAVEALYAPDASPIISLMAEEGVRAFAESLPAVVADGNDLDARSKALYGAWLCGACLGATTMSLHHKLCHVLGGSLDLPHAQTHAIVLPHVLGYNESHAPAARAALQRALGTDGDPSTALWELEQQLQIPHSLEELGVRETQLPAVIDEVLSNPYSNPTPVTEDGLRHLLGQALRGDRPTRR	failed
MTGAVVVDIPLRWSDMDAQGHVNNVRISELVQESRNQAFYTNGAQEMLDTGIVVVSQDVEFLAPFVVDGSPLRVAVGCSQLGAARTVLDYRAWHHDVEVARARGTICPFDFATGRPRRLTDGERGAFESMKVESQQWKPIKVVDVSEAGDFIEVPIRWSDVDRQGHVNNVSLAGYLQEARILATTSWSPGMRRAGNYLWVVVRQDIRYRRQVLPTQRSCRVHTALTRLGTSSMTLAGSIATEEGSALDAATVLVCVDPKTGASVPIDDQTRQALSAYLVTV	failed
MTGLINAIPATNKDEYKNVGVYIEHRGDELKRPSIEMIGIGKQLARKVNEKLICVVIGDKVDGIAKEVGEYGCDIVLAAESPELAEYRTMPYAEIIGGYIQEYKPNIFLLAATRNGRDLASRIAVKSRTGITADCTVLDIDENRTLLANRPTYGESTLAEILCRNHRPQMATARPGIFPPAEKEKDHKYEVIKKKVDVDKKLLGKQILKFIPRKSTDLTSAKIVVAGGLGLGGPDGFKMLEELANLIGGAVGSSRPPVDLGWITRDHQVGQTGQSVRPDLYIAVGISGKPQHIAGMKFSKVIVSINKDPNAEITKYSDYIITEDYRKVIPALIDAIKNSKKAQAPVQKA	failed
MTGPAENSTNFPGHRLKSPLPLRLATLSLLILYPVAWFAPLMRAGLLPIFGLSEISVITGLQSLWASDVALALIVTAFALFAPYLKTIGTALIQWNLLDPRAQPALHILGKLAMADIFLIALYITLAKGISYATIEAAWGLYLFTACILASIALGLLTERQIRKATR	failed
MTGQAAGPAAGPAAGQATKHAGGRRPGETRTREAILTAARVCFAERGFDATSLRRIAETAGVDQSLVHHFYGTKENLFLQALELPGKIEEAITAAAQGGLDGIGERVVRAHLSVWDDVSSRPALMTMVRSAAIHRAAAARLRETATGILARALGGVITGEDAMLRTSMVATQLVGLAMMRYVAHLEPLASADTDTVARHYGRAVQAIVTDRD	not failed
MTGRVCVLVMDSFGIGASLDAARYGDAGANTLVHIYEACKRGECDIEGVRKGPLMLPNLAGKGLYHAAMASSGLSFIDLATLAIPSGYYGYAVEQSLGKDTPSGHWEMAGVPVTFEWGYFPDKPYCFPEELISEFIKQCNLPGVLGEKHASGTIIIDELGEKHIRTGKPIVYTSADSVFQIAAHEEAFGLQRLYDICKIARNLVDKYQIGRVIARPFTGKPGSFKRTGNRKDYATPPPEKTLLDFLKEDGREVIAIGKIADIYAHQGVTQEIKADGNMALFDATLSAMKTAPQGSLVFTNFVDFDSSYGHRRDIAGYAHALEQFDARLPELDALLQPDDMVFIAADHGCDPTFPGSDHTREHIPVLVFGPQVNSKFIGRRDCFADIGQSIAEHLQLSSPLAHGVSFL	failed
MTHTHRPAALEVHHPQPLAVHPTVAPLVTVQPGPTPAVQSIVLPDGRVVTGYTLTPAPALAPVDARPAVSRTAVNVALGGVGFAAVCGGLVLLTTFIAALTTFISQLITLAAVIFGGWIAVQILGGTRHTGRGGTTINIRKAVIKRSHFHG	failed
MTIAAAPPSSRFRAVRIWLTLVAALIAVMVLVGGATRLTESGLSIVEWKPVTGSLPPLTDTQWHAAFDGYKQIPQYRELNAGMTLDQFKTIFWWEWSHRLLGRVIGIVYLLPFLWFLWRGAIGPEWKRALWIIFALGALQGAVGWWMVASGLSQRTEVSQVRLATHLSLALIIYAAIVWTLRRMADGARVAAPVRLRVTALALLGLTFVQLYAGALVAGLRAGRLYNTWPEIDGALIPDAARLWFESPWWKNLFDNHLTVQFDHRMLAYALWTLAALHMIDALRTRAAARGAVQLFLALTAQATLGIFTVLYAAPIDLALVHQAMALVVLTLAVLQAERLTATRKDRTARDRGAAGRLAIPSEPFPSA	failed
MTIAFLVLVVALASGFAFLNGFRDVSNAVALSTRTRALTPSIAVLLAAIFNFVGAMLSGTFILAFTQSWITLPEGTSGLTMLASALTAAILWGVYAWWRGIPLSSTNSLIGGLIGAGAASVLVGGNAVGGMDNVLLTQVALPLVLSPVIAFVAAYLLVWPVTWAARYTQPNVVNRRFRRAQAISTAAVAFGHGLQDGQRTAAVMVLAMVAAGLSSGSDVPLWILLVTAIMLTAGTMFGGWRISHTLGHKLIRVDPLRGFVAQTLTSVMLFIGAIGFHLPLSTTHTLTAAVLGSGVNQRFHTVNRRLVRRVLLFWVATPLITAAAAFILELAFSPLADL	failed
MTIAHISDLHFGRIADSGVVEALLDEINAAGIDLVAVSGDLTQRARPAEYRAARNLLDALGPPTLVVAGNHDVYPWWRPLKRLRTPLERYRQFITEDLAPTFEAGGVAALGLTSAYGPSIKGGRIGPADRAAMRAFFSGTGDDRFKVLVVHHQLHPTAIGPISPHPVARQAQQTLAVAGEVGIDLILCGHLHISAIQPLEIIPGTPRIVVASAGTATSNRWREPTGPINFYNVVSVEPEAFSVEERRYVPDEGRFVRDGVTRFDHAG	failed
MTIATSTKPQINWVNTLFFLGLHIGALFAFIPSNFSWAAVGVALLLYWITGGLGITLGFHRLVTHRSFQTPKWLEYFLVLCGTLACQGGPIEWVGTHRIHHLHSDTDPDPHDSNKGFWWSHIGWLIYHSPSHADVPRFTKDIAEDPVYQFLQKYFIFIQIALGLLLLYLGGWSFVVWGVFFRIVWVYHCTWLVNSATHKFGYRTYDAGDRSTNCWWVAVLVFGEGWHNNHHAFQYSARHGLEWWEVDLTWMTVQLLQILGLATNVKLADKKQ	failed

Reference: a protein production outcome set (Wang et al. 2014)
